This assay has as its target SARS-CoV-2 D614G spike (SARS-CoV-2, UniProt P0DTC2 14-1208). The experiment in a line: SPR. A general note: SPR reads the build-up and loss of mass on a sensor chip optically.

B1: Fab 2A10 (antibody, V domains shown)
VH: QVQLVESGGGLIQPGGSLRLSCAASEFIVSSNYMSWVRQAPGKGLEWVSLLYSGGTTYYADSVKGRFTISRDNSKNTLFLQMNSLRAEDTAMYYCARDRGPWLHDYWGQGTLVTVS
VL: DIVMTQSPSSLSASVGDRVTITCQASQDINKYCNWYQQKPGKAPKLLIYDASNLETGVPSRFSGSGSGTDFTFTINSLQPEDIATYYCQQYDNLPPTFGGGTKVEIK
One may read the Kd as the free concentration of one partner at which half of the binding sites on the other are occupied at equilibrium, for simple one-to-one binding. A lower Kd goes with a tighter complex. The molecule B1 displayed a Kd of 161 pM.

B2: 1C3 antigen-binding fragment (Fab) (Fab, V domains shown)
VH: QVQLLESGGGLVQPGRSLRLSCAASGFTFDDYAMHWVRQPPGKGLEWVSGSSWNSGSVVYADSVKGRFTISRDSAKNSLHLQMNSLRVEDTALYYCAKAVDPTRGSYSPDYGFDIWGQGTMVTVS
VL: not shown
B2 displayed a Kd of 43 pM.

(Values after patent US20250382353A1 (published 2025).)
